Values quoted from earlier work as cited in paper PMC3045798.

Molecular target: Cys25 (UniProt position 158, GSCGSCWAFSA)

## Papain (Carica papaya (not stated in the article))
  pKa: around 2.5 to 3.5
